Molecular target: 23C-176C double-cysteine mutant of full-length ClpB, labelled with Alexa Fluor 488 and Alexa Fluor 594 (Thermus thermophilus) (UniProt Q9RA63)
Sequence (Q9RA63 whole entry R23C/D176C): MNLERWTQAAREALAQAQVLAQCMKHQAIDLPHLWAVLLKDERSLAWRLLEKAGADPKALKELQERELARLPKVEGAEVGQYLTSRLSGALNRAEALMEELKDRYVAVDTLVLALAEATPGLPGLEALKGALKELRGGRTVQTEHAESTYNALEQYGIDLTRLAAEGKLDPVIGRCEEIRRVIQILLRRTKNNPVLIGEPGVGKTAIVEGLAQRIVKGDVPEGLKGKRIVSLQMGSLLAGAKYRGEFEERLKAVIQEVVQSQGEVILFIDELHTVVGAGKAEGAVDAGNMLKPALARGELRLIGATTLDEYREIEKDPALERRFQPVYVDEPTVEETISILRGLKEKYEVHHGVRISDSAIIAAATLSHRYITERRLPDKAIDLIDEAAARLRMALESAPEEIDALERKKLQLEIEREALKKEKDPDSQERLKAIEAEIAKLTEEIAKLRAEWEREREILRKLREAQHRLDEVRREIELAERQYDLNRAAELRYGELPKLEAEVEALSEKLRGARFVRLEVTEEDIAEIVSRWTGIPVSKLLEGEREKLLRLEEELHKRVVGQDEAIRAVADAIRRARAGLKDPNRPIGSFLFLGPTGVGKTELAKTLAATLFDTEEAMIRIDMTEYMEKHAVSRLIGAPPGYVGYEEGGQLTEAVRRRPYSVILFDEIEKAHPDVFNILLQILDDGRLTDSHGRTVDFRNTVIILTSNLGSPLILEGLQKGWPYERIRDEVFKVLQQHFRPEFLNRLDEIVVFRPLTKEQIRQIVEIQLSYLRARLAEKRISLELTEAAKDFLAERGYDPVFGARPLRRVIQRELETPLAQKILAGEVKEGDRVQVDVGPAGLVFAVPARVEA

- ATPase activity of fully labeled 23C-176C ClpB with 25 μM κ-casein relative to basal: 3.1 fold
Substance: κ-casein (from UniProt P02668 22-190) (natural protein)
